Measured values published in publication PMC6793842 (2019).

B1: human basigin, entire ectodomain (receptor)
chain: EPGTVFTTVEDLGSKILLTCSLNDSATEVTGHRWLKGGVVLKEDALPGQKTEFKVDSDDQWGEYSCVFLPEPMGTANIQLHGPPRVKAVKSSEHINEGETAMLVCKSESVPPVTDWAWYKITDSEDKALMNGSESRFFVSSSQGRSELHIENLNMEADPGQYRCNGTSSKGSDQAIITLRVRSHLAAL
modifications: biotin (enzymatic monobiotinylation; site not stated)
B2: gorilla basigin, entire ectodomain (receptor)
chain: ASGAAGTVLTTVEELGSKILLTCSLNDSATEVTGHRWLKGGVVLKEDALPGQKTEFEVDSDDQWGEYSCVFLPEPMGTANIQLHHGPPRVKAVKLSEHINEGETAVLACKSESVPPVTDWAWYKITDSGDKALTNGSESRFFVSSSQGRSELYIENLNMEADPGQYRCNGTSSKGSDQAVITLRVRSHLA
modifications: biotin (enzymatic monobiotinylation; site not stated)
B3: chimpanzee basigin, entire ectodomain (receptor)
chain: ASGAAGTVFTTVEDLGSKILLTCYMNDSATEVTGHRWLKGGVVLEEDALPGQKTEFKVDSDDQWGEYSCVFLPEPMGTANIQLHGPPRVKAVKSSEHINEGETAVLVCKSESVPPVTDWAWYKITDSGDKALMNGSESRFFVSSLQGRSELHIENLNMEADPGQYRCNGNSSEGSDQAVITLRVRSHLA
modifications: biotin (enzymatic monobiotinylation; site not stated)
B4: P. reichenowi RH5 (ligand)
chain: MIRIKKKIILSILYIHLFILNSLSFENAKKKTKNQENNLTLLPIKSSEEEKSNIKHKDIGNVNKDDINNDIDNDKKDVKISNVKDHSTYIKSYLNKNVNDGLKYLFMPSHNAYIKKYSLFNKMNNDMLLNEKKDVNNNKEDDKNINHKNVNFLQNDFKGLPKNNIADSIDIVQDKEGHLDFIIIPYYSHVEYCKHLSIISVFHRLSTYGEYKDVIAFVKNINEKYDKVKDKCNEIKNDLITTIKKLENPHDVNNKNEDSNIYNTFEDIDDIYEDDMQDQLEYVYDTIEDADSDNTHPNKKKYHLINRTYKKMMDEYNLKKNKLIQCIKNNEPDFNNIYMDIKNYSTNRFENISCDNINFCNTNGIKNHYIYYIEKEMLAIKSKDLNKDIKDMTSILQQSELLLINLNKKMGSYIYIDTIKFIHKEMKYIFKRIEHHTNIIIDKIKIIDDKYKISINKTFPKNILLPKILDLSNEYALFITSSTLRQMLYNTFYTKEKHLHNLFHHLIYVLQIKFNDVPVHMEYFPLYKKKKILTQ

Key:
Assay in all cases: SPR
P. adleri RH5 = P. adleri RH5 (P. adleri)
P. praefalciparum RH5 = P. praefalciparum RH5 (P. praefalciparum)
P. gaboni RH5 = P. gaboni RH5 (P. gaboni)
[1] = molecular target: introgressed ancestral RH5 (reticulocyte-binding protein homologue 5) (calculated ancestor; parent sequence P. …, UniProt Q8IFM5 25-526, H200)
P. billcollinsi RH5 = P. billcollinsi RH5 (P. billcollinsi)
[2] = molecular target: B3

Row | Binder | Kd (P. adleri RH5) | Kd (P. praefalciparum RH5) | further results
1 | B1 | 3100 nM | 1900 nM | Kd (P. gaboni RH5): 3600 nM
2 | B2 | 1000 nM | 2500 nM | Kd [1]: 3000 nM
3 | B3 |  |  | Kd (P. billcollinsi RH5): 1800 nM
4 | B4 |  |  | Kd [2]: 4300 nM
